Assay results published in publication doi:10.1101/2022.09.11.507496.

Target: VSV:H2-K^b (mouse | not stated) (UniProt P03521)
Assay: micropipette adhesion frequency

Sequence of UniProt P03521 (P03521 whole entry, looked up): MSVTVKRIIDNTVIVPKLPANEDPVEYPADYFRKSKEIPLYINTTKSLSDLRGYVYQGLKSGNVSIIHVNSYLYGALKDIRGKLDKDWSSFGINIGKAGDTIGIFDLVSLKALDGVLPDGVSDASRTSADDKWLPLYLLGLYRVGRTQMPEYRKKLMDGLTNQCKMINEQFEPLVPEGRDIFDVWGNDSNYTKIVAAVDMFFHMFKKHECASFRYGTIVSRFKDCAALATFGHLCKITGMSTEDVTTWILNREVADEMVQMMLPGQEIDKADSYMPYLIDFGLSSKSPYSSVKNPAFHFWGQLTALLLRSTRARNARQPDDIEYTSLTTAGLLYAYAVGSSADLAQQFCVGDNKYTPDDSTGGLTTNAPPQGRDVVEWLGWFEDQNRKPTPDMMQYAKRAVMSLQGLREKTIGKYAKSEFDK

In the case of “CD8 on CD8+ T cells of OT-I mice (from UniProt P01731;P10300) (receptor)”, the fold smaller 2D affinity than TCR–pMHC is reported as 500 fold.
